Reference: the supplement of paper PMC10567573

B1: DLC1 (parent)
chain: NDDSADYQHFLQDCVDGLFKEVKE

Variants of: B1
Assay: protein stability index of a GFP-peptide fusion (GPS, HEK-293T) (PSI 1-6); higher = more stable
Conditions: c terminus: a fixed tail appended
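Further: lentivirally expressed fusions sorted by FACS into six bins by GFP to DsRed ratio, PSI derived from sequencing read proportions per bin multiplied by bin number.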

Compared with NDDSADYQHFLQLCVDGLFKEVKE [D13L], NDDSADYQHFLQHCVDGLFKEVKE [D13H] is lower in protein stability index: 1.76 for the first, 1.51 for the second.

First: NDDSADYQHFLQMCVDGLFKEVKE [D13M]
Second: NDDSADYQHFLQTCVDGLFKEVKE [D13T]
The protein stability index of the first is higher: 2.34 for the first, 2.16 for the second.

Going from NDDSADYQHFLQVCVDGLFKEVKE [D13V] to NDDSADYQHFLQNCVDGLFKEVKE [D13N], the protein stability index rises from 1.56 to 2.38.

Compared with NDDSADYQHFLQQCVDGLFKEVKE [D13Q], NDDSADYQHFLQACVDGLFKEVKE [D13A] is lower in protein stability index: 2.24 for the first, 1.79 for the second.

First: NDDSADYQHFLQFCVDGLFKEVKE [D13F]
Second: NDDSADYQHFLQDWVDGLFKEVKE [C14W]
The protein stability index of the first is lower: 1.86 for the first, 4.31 for the second.

First: NDDSADYQHFLQDKVDGLFKEVKE [C14K]
Second: NDDSADYQHFLQDIVDGLFKEVKE [C14I]
The protein stability index of the first is higher: 4.78 for the first, 2.41 for the second.

First: NDDSADYQHFLQDEVDGLFKEVKE [C14E]
Second: NDDSADYQHFLQDTVDGLFKEVKE [C14T]
The protein stability index of the first is higher: 5.38 for the first, 4.12 for the second.

First: NDDSADYQHFLQDVVDGLFKEVKE [C14V]
Second: NDESADYQHFLQDCVDGLFKEVKE [D3E]
The protein stability index of the first is lower: 3.21 for the first, 3.85 for the second.

First: NDMSADYQHFLQDCVDGLFKEVKE [D3M]
Second: NDISADYQHFLQDCVDGLFKEVKE [D3I]
The protein stability index of the first is higher: 2.26 for the first, 2.19 for the second.

Going from NDNSADYQHFLQDCVDGLFKEVKE [D3N] to NDYSADYQHFLQDCVDGLFKEVKE [D3Y], the protein stability index falls from 3.02 to 2.24.

First: NDVSADYQHFLQDCVDGLFKEVKE [D3V]
Second: NDSSADYQHFLQDCVDGLFKEVKE [D3S]
The protein stability index of the first is higher: 3.69 for the first, 2.4 for the second.

First: NDDSADYQHFLQDCVDGLFEEVKE [K20E]
Second: NDDSADYQHFLQDCVDGLFHEVKE [K20H]
The protein stability index of the first is higher: 3.55 for the first, 3.45 for the second.

Going from NDDSADYQHFLQDCVDGLFAEVKE [K20A] to NDDSADYQHFLQDCVDGLFGEVKE [K20G], the protein stability index rises from 3.35 to 3.84.

First: NDDSADYQHFLQDCVDGLFFEVKE [K20F]
Second: NDDSADYQHFLQDCVDGLFMEVKE [K20M]
The protein stability index of the first is higher: 2.93 for the first, 2.68 for the second.

First: NDDSADYQHFEQDCVDGLFKEVKE [L11E]
Second: NDDSADYQHFTQDCVDGLFKEVKE [L11T]
The protein stability index of the first is higher: 5.25 for the first, 4.94 for the second.

NDDSADYQHFRQDCVDGLFKEVKE [L11R] and NDDSADYQHFGQDCVDGLFKEVKE [L11G] are the same in protein stability index: 5.35 for the first, 5.35 for the second.

Compared with NDDSADYQHFHQDCVDGLFKEVKE [L11H], NDDSADYQHFNQDCVDGLFKEVKE [L11N] is lower in protein stability index: 5.08 for the first, 4.76 for the second.

Compared with NDDSADYQHFLQDCVDGLFKEEKE [V22E], NDDSADYQHFLQDCVDGLFKENKE [V22N] is lower in protein stability index: 5.42 for the first, 5.27 for the second.

First: NDDSADYQHFLQDCVDGLFKEMKE [V22M]
Second: NDDSADYQHFLQDCVDGLFKEFKE [V22F]
The protein stability index of the first is higher: 4.08 for the first, 3.84 for the second.

First: NDDSADYQHFLQDCVDGLFKEPKE [V22P]
Second: NDDSADYQHFLQDCVDGLFKECKE [V22C]
The protein stability index of the first is lower: 4.26 for the first, 4.3 for the second.

First: NDDSADYQHFLQDCVDGLFKERKE [V22R]
Second: NDDSADYQHFLQDCVDGLFKEQKE [V22Q]
The protein stability index of the first is higher: 5.08 for the first, 4.37 for the second.

Going from NDDSADYQHFLQDCVDGLFKEIKE [V22I] to NDDSAVYQHFLQDCVDGLFKEVKE [D6V], the protein stability index falls from 2.58 to 2.24.

Compared with NDDSAMYQHFLQDCVDGLFKEVKE [D6M], NDDSAEYQHFLQDCVDGLFKEVKE [D6E] is higher in protein stability index: 2.63 for the first, 3.29 for the second.

Going from NDDSASYQHFLQDCVDGLFKEVKE [D6S] to NDDSAIYQHFLQDCVDGLFKEVKE [D6I], the protein stability index falls from 3.44 to 2.32.

Compared with NDDSAKYQHFLQDCVDGLFKEVKE [D6K], NDDSARYQHFLQDCVDGLFKEVKE [D6R] is lower in protein stability index: 3 for the first, 2.94 for the second.

Going from NDDSANYQHFLQDCVDGLFKEVKE [D6N] to NDDSAAYQHFLQDCVDGLFKEVKE [D6A], the protein stability index falls from 2.4 to 2.32.

Going from NDDSADYRHFLQDCVDGLFKEVKE [Q8R] to NDDSADYMHFLQDCVDGLFKEVKE [Q8M], the protein stability index falls from 2.08 to 1.43.

First: NDDSADYWHFLQDCVDGLFKEVKE [Q8W]
Second: NDDSADYSHFLQDCVDGLFKEVKE [Q8S]
The protein stability index of the first is higher: 3.5 for the first, 2.88 for the second.

First: NDDSADYHHFLQDCVDGLFKEVKE [Q8H]
Second: NDDSADYGHFLQDCVDGLFKEVKE [Q8G]
The protein stability index of the first is lower: 2.36 for the first, 2.75 for the second.

First: NDDSADYFHFLQDCVDGLFKEVKE [Q8F]
Second: NDDSADYKHFLQDCVDGLFKEVKE [Q8K]
The protein stability index of the first is higher: 2.65 for the first, 2.1 for the second.

Compared with NDDSADYNHFLQDCVDGLFKEVKE [Q8N], NDDSADYVHFLQDCVDGLFKEVKE [Q8V] is lower in protein stability index: 3.03 for the first, 2.93 for the second.

Going from NDDSADYCHFLQDCVDGLFKEVKE [Q8C] to NDDSADYTHFLQDCVDGLFKEVKE [Q8T], the protein stability index rises from 1.69 to 2.44.

Compared with NDDSADAQHFLQDCVDGLFKEVKE [Y7A], NDDSADKQHFLQDCVDGLFKEVKE [Y7K] is higher in protein stability index: 3.78 for the first, 4.33 for the second.

Compared with NDDSADNQHFLQDCVDGLFKEVKE [Y7N], NDDSADQQHFLQDCVDGLFKEVKE [Y7Q] is lower in protein stability index: 5.14 for the first, 4.52 for the second.

First: NDDSADPQHFLQDCVDGLFKEVKE [Y7P]
Second: NDDSADMQHFLQDCVDGLFKEVKE [Y7M]
The protein stability index of the first is higher: 4.62 for the first, 2.08 for the second.

Compared with NDDSADIQHFLQDCVDGLFKEVKE [Y7I], NDDSADYQHFLKDCVDGLFKEVKE [Q12K] is higher in protein stability index: 1.75 for the first, 2.33 for the second.

Compared with NDDSADYQHFLCDCVDGLFKEVKE [Q12C], NDDSADYQHFLMDCVDGLFKEVKE [Q12M] is lower in protein stability index: 3.91 for the first, 3.73 for the second.

First: NDDSADYQHFLGDCVDGLFKEVKE [Q12G]
Second: NDDSADYQHFLYDCVDGLFKEVKE [Q12Y]
The protein stability index of the first is higher: 4.34 for the first, 3.71 for the second.

Compared with NDDSADYQHFLVDCVDGLFKEVKE [Q12V], NDDSADYQHFLQDCVHGLFKEVKE [D16H] is higher in protein stability index: 3.33 for the first, 3.44 for the second.

Going from NDDSADYQHFLQDCVKGLFKEVKE [D16K] to NDDSADYQHFLQDCVMGLFKEVKE [D16M], the protein stability index rises from 2.56 to 2.81.

Going from NDDSADYQHFLQDCVPGLFKEVKE [D16P] to NDDSADYQHFLQDCVCGLFKEVKE [D16C], the protein stability index falls from 4.34 to 2.29.

Going from NDDSADYQHFLQDCVEGLFKEVKE [D16E] to NDDSADYQHFLQDCVWGLFKEVKE [D16W], the protein stability index falls from 2.08 to 1.8.

Going from NDDSADYQHFLQDCVVGLFKEVKE [D16V] to NDDSADYQHFLQDCVIGLFKEVKE [D16I], the protein stability index falls from 2.99 to 1.49.

First: NDDSADYQHFLQDCVSGLFKEVKE [D16S]
Second: NDDSADYQHFLQDCVQGLFKEVKE [D16Q]
The protein stability index of the first is higher: 3.22 for the first, 2.31 for the second.

Compared with NDDSADYQHFLQDCVDGLSKEVKE [F19S], NDDSADYQHFLQDCVDGLIKEVKE [F19I] is lower in protein stability index: 5.67 for the first, 2.72 for the second.

Going from NDDSADYQHFLQDCVDGLWKEVKE [F19W] to NDDSADYQHFLQDCVDGLAKEVKE [F19A], the protein stability index rises from 2.96 to 5.02.

Going from NDDSADYQHFLQDCVDGLQKEVKE [F19Q] to NDDSADYQHFLQDCVDGLEKEVKE [F19E], the protein stability index falls from 5.08 to 4.54.
